Data from US20240173424A1, “ANTI-NECTIN-4-ANTIBODY EXATECAN CONJUGATES” (EMERGENCE THERAPEUTICS AG, priority 2021, published 2024).

Legend:
[1] = system: SUM190PT cells and normal human differentiated keratinocytes; test: Internalization assay with pHAB dye conjugates, tumor cell line and keratinocytes; format: cell-based; details: in vitro, in reference to HA22 mAb (Enfortumab)
Description: FIG. 9: Differential internalization in tumor cell line and human keratinocytes. Detection by fluorescence Enfortumab (HA22), Ch-15A7.5 and Isotypic control mAbs were coupled to pHAB thiol reactive dye to reach dye antibody ratio comprised between 4.58 and 5.55. A dose range of each of these antibody dye conjugates (1.6 ng/ml-5 μg/mL) was incubated in duplicates with SUM190PT Nectin-4-expressing cell line (A) normal human differentiated (0.1 mM CaCl2) keratinocytes (B). Intracellular fluorescence was recorded after 24 hours with florescence microplate reader (ClarioStar). Reported are the fluorescence intensities in function of dye antibody conjugate concentration.
Ten thousand SUM190PT or human differentiated keratinocytes (0.1 mM CaCl2) were seeded in 96-wells plates and subsequently incubated for 24 hours at 37° C., with a dose range (1.6 ng/ml-1 μg/mL) of anti Nectin-4 mAbs and isotypic control conjugated with pHAB thiol reactive dye. Upon internalization and endo-lysosomal processing, the acidic environment causes the dye to fluoresce. Fluorescence intensity was monitored on a plate reader with an excitation at 532 nm and an emission at 560 nm.
The thiol reactive dye pHAB (Promega) was conjugated to cysteine of selected anti-Nectin-4 ThiomAb (D265C, L234A, L235A) antibodies using maleimide chemistry according to manufacturer's instructions. […]

In vivo half-life = details: due to a lower absorption rate in the skin
[2] = target: T1, Nectin-4 expressed by tumors and Nectin-4 expressed by human keratinocytes (Homo sapiens, UniProt Q96NY8); test: Differential binding to tumor cells and human keratinocytes
T1 construct: Cells or cell lines (10,000-50,000) expressing Nectin-4 (naturally or transfected); endogenous in cells; host or cells: SUM190/SUM190PT (also SUM149 in IHC), NHEK differentiated with 0.1 mM CaCl2, human skin sections
T1 sequence (Q96NY8 32-510): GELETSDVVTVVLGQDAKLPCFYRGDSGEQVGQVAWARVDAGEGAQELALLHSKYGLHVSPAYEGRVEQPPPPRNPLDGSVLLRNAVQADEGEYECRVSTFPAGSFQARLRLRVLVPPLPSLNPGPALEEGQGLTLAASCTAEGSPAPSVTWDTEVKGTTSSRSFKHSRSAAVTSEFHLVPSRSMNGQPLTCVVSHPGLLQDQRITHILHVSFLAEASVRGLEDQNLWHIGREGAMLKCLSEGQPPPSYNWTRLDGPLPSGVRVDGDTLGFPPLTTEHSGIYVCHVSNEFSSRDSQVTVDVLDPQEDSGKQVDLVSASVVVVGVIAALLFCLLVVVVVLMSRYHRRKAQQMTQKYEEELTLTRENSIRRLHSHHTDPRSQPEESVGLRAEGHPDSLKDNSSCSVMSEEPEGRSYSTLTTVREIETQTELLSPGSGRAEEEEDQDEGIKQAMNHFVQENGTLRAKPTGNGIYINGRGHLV
Description: FIG. 6: Differential binding to Nectin-4 expressed by tumor cell line and normal differentiated human keratinocytes. […] Cells were then stained with phycoerythrin conjugate goat anti human Fc antibody. Normalized mean fluorescence intensities are shown. Non-linear curve fitting (4 parameters) was done with GraphPad Prism 9 software. Horizontal bar is placed at 50% of maximum staining intensity obtained with HA22 antibody on SUM190 cells.
FIG. 7: Differential binding to Nectin-4 expressed by tumor cell line and normal differentiated human keratinocytes. Detection by flow cytometry. • Flow cytometry analysis of TNBC cell line (SUM190, A) and normal differentiated (0.1 mM CaCl2) human keratinocytes (NHEK, B) using 5 μg/mL of HA22 (Enfortumab), Ch-5A12.2, Ch-15A7.5, and Ch-8F06. Cells were then stained with phycoerythrin conjugate goat anti human Fc antibody. Normalized mean fluorescence intensities are shown.
FIG. 8: Differential binding to Nectin-4 expressed by tumor cell line and human keratinocytes. Detection by immuno-histochemistry. Cryo-preserved OCT-embedded blocks of high expressing levels of Nectin-4 tumor cell line (SUM190), low expressing levels of Nectin-4 tumor cell line (SUM149), human and cynomolgus skin were processed for staining with 15A7.5 mAb (A) and 9A2.7 mAb (B). Quick score reported for each mAb are shown (A, B). C, ratio of quick score SUM190 over human skin. […]
Remaining blocks were stored at −80° C. until further use. […] Several dilution of each mAb were tested to optimize noise to signal ratio and 0.5 μg/ml of mouse 15A7.5 mAb and 10 µg/mL of mouse 9A2.7 mAb were determined as optimal. […] Both the stained cells proportion and the staining intensity were evaluated for each field. […] Scoring procedure was as follows: (i) The proportion of cells stained positively was estimated and a score from 0 to 4 was be assigned for each field (0=0-5%; 1=5-25%; 2=25-50%; 3=50-75%; and 4=75-100%); and (ii) The staining intensity was scored as 0, 1, 2, or 3 corresponding to the presence of negative, weak, intermediate, and strong brown staining, respectively. […]

[3] = system: SUM190PT cells and normal human differentiated keratinocytes; format: cell-based
Description: FIG. 10: Differential in vitro cytotoxic activity to tumor cells and normal differentiated human keratinocytes. […] Viability (MTT assay) after a 5-days incubation period is reported. EC50 values were determined by GraphPad Prism 9 software using non-linear curve fitting (4 parameters). […] Data shown is representative of 2 different Nectin-4 expressing tumor cell lines (SUM190PT and MDA-MB468) and 3 independent donors for human keratinocytes.
To analyze the in vitro cytotoxic activity of ADC, cell viability was assessed using the AlamarBlue staining protocol as recommended by the manufacturer (Biosource, CA, USA). The test incorporates a fluorescent oxidation-reduction indicator. Fluorescence intensity is proportional to cellular metabolic reduction. Experiments were done by incubating 3000 cells/well (SUM190PT or differentiated NHEK) in triplicate with serial dilutions of ADC at Day 0 in 96-wells plates. AlamarBlue was measured at Day 5 by incubating 1/10 volume of alamarBlue solution for 2 h at 37° C. and read at 595 nm (FLUOstar Optima, BMG Labtech).

B1: mAb 15A7.5: parental monoclonal anti-Nectin-4 antibody, CDRs SEQ ID NO: 1-12, VH/VL SEQ ID NO: 13/14 (antibody, V domains shown)
VH: EVKLVESGGGLVQPGGSRKLSCAASGFTFSNYGMAWVRQAPGKGPEWVAFISNLAYGINYADTVTGRFTISRENAKNTLYLEMRSLRSEDTAMYYCARGARATGWFAYWGQGTLVTVSA
VL: DIVMTQSQKFMSTSIGDRVSVTCKASQNVDTHVAWYQEKPGQSPKALIYSASYRYSGVPDRFTGSGSGTDFTLTISNVQSEDLADYFCQQYNSYPLTFGGGTKLEIK
modifications: VH_15A7.5; VK_15A7.5
- internalization towards keratinocytes in comparison to tumor cells [1]: lower
- half-life (In vivo half-life): higher half-life
- affinity to Nectin-4 expressed by tumors in comparison to Nectin-4 expressed by human keratinocytes ([2]; in vitro differentiated Nectin-4 expressing keratinocytes): higher affinity
- binding affinity towards keratinocytes in comparison to tumor cells ([2]; in vitro, in reference to HA22 mAb (Enfortumab)): lower binding affinity
- cytotoxic activity towards keratinocytes in comparison to tumor cells [3]: lower
